Results on 1 substance are retold here after paper PMC4333214.

Several values for one entry are separate records, joined by “and”; a condition that tells them apart may be missing. Equal entries are not always repeated.

The experiment has as its target FLβ.AP2 (AP2 comprising full-length β2, μ2 and σ2 subunits and the α-trunk domain) (UniProt P63010). Kind of experiment: co-sedimentation.

Chain of clathrin (Q00610 whole entry, looked up): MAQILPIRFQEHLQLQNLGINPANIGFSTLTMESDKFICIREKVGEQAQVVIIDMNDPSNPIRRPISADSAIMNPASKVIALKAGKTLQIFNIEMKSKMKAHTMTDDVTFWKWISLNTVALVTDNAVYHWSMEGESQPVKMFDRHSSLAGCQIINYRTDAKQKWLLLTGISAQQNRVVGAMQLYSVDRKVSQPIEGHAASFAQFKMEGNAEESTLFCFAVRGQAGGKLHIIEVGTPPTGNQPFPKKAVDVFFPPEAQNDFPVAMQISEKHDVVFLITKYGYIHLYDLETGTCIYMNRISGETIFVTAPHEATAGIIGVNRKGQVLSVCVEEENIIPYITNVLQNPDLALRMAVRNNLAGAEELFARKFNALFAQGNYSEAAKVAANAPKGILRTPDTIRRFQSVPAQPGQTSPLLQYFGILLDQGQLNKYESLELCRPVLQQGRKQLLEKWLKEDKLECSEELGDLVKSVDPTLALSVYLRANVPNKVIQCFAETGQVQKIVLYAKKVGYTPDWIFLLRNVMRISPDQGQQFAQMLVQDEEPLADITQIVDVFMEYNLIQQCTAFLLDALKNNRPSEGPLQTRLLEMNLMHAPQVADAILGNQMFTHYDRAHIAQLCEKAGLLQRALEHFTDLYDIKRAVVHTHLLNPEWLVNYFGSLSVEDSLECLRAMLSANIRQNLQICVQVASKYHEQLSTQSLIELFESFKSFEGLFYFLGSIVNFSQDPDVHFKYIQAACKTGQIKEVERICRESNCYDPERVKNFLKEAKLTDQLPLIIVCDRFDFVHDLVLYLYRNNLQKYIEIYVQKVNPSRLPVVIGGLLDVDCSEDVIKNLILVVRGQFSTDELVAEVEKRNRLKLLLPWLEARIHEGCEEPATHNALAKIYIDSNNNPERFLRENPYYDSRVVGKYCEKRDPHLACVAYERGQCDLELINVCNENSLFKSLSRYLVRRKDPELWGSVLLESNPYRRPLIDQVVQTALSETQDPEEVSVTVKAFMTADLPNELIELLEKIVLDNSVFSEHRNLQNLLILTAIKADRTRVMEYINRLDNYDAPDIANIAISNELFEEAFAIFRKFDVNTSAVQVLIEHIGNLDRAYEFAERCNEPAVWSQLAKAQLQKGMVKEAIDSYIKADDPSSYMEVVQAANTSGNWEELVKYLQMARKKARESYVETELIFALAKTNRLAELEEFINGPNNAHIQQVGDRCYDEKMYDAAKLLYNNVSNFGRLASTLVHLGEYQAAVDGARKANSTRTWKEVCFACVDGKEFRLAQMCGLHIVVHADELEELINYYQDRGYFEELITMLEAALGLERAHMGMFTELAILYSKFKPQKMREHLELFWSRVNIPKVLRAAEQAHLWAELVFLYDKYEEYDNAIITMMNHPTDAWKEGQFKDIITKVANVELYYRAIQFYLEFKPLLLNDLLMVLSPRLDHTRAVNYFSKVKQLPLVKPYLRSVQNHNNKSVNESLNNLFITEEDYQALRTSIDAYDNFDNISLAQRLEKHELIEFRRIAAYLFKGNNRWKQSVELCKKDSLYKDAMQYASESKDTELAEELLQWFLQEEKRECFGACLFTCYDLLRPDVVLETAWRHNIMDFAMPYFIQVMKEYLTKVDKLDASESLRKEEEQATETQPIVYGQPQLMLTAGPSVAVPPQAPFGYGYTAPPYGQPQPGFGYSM

Regarding “clathrin (from UniProt Q00610 1-1675) (complex)”, the ratio of clathrin to AP2 in the liposome pellets was 26.5% and 5.2%.
